Data taken from patent US10000775B2, “Biosynthesis of 1-undecene and related terminal olefins” (The Regents of the University of California, priority 2013, dated 2018).

Legend:
Type in all cases: biochemical
[1] = Enzyme recycling experiments; conditions: for 1-undecene produced (activity) compared with the original PFL_4321: recycled after single turnover with EDTA, reconstituted with fresh Fe2+
Protocol: To recycle the PFL_4321, 1 mL of the oxygenated buffer solution (50 mM MES, pH 6.2, 100 mM NaCl) was mixed with 1 mL of an O2-free solution containing 50 mM MES buffer (pH 6.2), 100 mM NaCl, 200 μM PFL_4321, 1 mM (NH4)2Fe(SO4)2, 2 mM LA, so that the final mixture contained 50 mM MES buffer (pH 6.2), 100 mM NaCl, 100 μM PFL_4321, 0.5 mM (NH4)2Fe(SO4)2, and 1 mM LA. This original reaction was quenched by adding 10-fold excess of EDTA to iron. The mixture was desalted on a GE Disposable PD-10 column and incubated at 4° C. on a nutator for two hours to completely remove the residual 1-undecene in the solution. The recycled apo-PFL_4321 was concentrated by using Centrifugal Filter Units (Millipore) and subjected to a second enzymatic assay that contained 50 mM MES buffer (pH 6.2), 100 mM NaCl, 100 μM PFL_4321, 0.5 mM (NH4)2Fe(SO4)2, and 1 mM LA. To initiate the reaction, 100 μL of the oxygenated buffer solution (50 mM MES, pH 6.2, 100 mM NaCl) was mixed with 100 μL of an O2-free solution containing 50 mM MES buffer (pH 6.2), 100 mM NaCl, 200 μM PFL_4321, 1 mM (NH4)2Fe(SO4)2, 2 mM LA. The control group was set up under similar conditions except that the original apo-PFL_4321 which had not been used for any enzymatic reactions was used. The experimental group containing recycled PFL_4321 produced 80% of the 1-undecene compared with the control group that contained the original PFL_4321.

[2] = In vitro activity of PFL_4321 and PFL_0203 toward fatty acids with various chain lengths; set-up: key to In vitro activity toward C8:0 / In vitro activity toward C10:0 / In vitro activity toward C12:0 / In vitro activity toward C14:0 / In vitro activity toward C16:0: ✓: indicates production of the corresponding 1-alkene from the indicated substrate; x: indicates failure to produce the corresponding 1-alkene from the indicated substrate
Protocol: A typical condition is as follows: 1 mL of reaction mixture contains 50 mM MES buffer (pH 6.2), 300 mM NaCl, 100 μM (NH4)2Fe(SO4)2, 1 mM ascorbic acid, 100 μM fatty acid substrate or analogs, and 10 μM enzyme. The reaction was performed in a sealed headspace vial at 30° C., initiated by adding lauric acid and quenched by injecting equal volume of 5 M NaOH. 1-Undecene production was analyzed and quantified by using the SPME-GCMS method. To determine the kinetic parameters of PFL_4321 on lauric acid, initial velocities at 1, 10, 20, 50, 100, and 150 μM of lauric acid were measured (25 mM lauric acid solution was prepared by adding 0.5% tergitol and heating at 65° C. for 10 min). The reactions were quenched at 2, 4, 6, 8, and 10 seconds, and the acquired turnover rates were fit to the Michaelis-Menten equation using GraphPad Prism to obtain kcat and Km. The kcat and Km of myristic acid and capric acid were determined similarly.
Unless otherwise noted, all experiments with PFL_0203 as described herein were performed using similar assays, procedures, and techniques as used in a given corresponding experiment as described in Example 1.
The fatty acid substrate specificity of PFL_0203 was investigated in a series of in vitro experiments. […] Thus, PFL_4321 and PFL_0203 share some overlap in suitable substrates; PFL_4321 is able to act on C10-C14 fatty acid substrates, and PFL_0203 is able to act on C10-C16 fatty acid substrates.

[3] = In vitro anaerobic enzymatic assays
Protocol: FIG. 6 illustrates GC-MS detection of 1-undecene production by PFL_4321 in the aerobic/anaerobic assays. The anaerobic assay was performed by using the anaerobically purified enzyme and degassed reagents, adding glucose oxidase/glucose/catalase, and conducting the experiment in an anaerobic chamber with ppm O2<0.7. The control aerobic assay was performed by using a similar reaction mixture under ambient air conditions and omitting glucose oxidase.
All of the reagents were bubbled with nitrogen gas and equilibrated in the anaerobic chamber overnight before use. E. coli BL21 Gold (DE3, pZR60_HRV3c) was grown, harvested, and lysed as mentioned above. The insoluble fraction was removed by centrifugation, and the soluble proteins were incubated with 1 mL of Ni-NTA beads (Qiagen) on a nutator at 4° C. for 1 hr. The proteins were then moved into the anaerobic chamber, loaded onto a gravity flow column, washed with washing buffer (50 mM imidazole, 20 mM Tris, 300 mM NaCl, pH 8.5), and eluted with eluting buffer (300 mM imidazole, 20 mM Tris, 300 mM NaCl, pH 8.5). Purified proteins were exchanged into 20 mM Tris (pH 8.5) and 300 mM NaCl by passing through a desalting column (GE Disposable PD-10), and then concentrated using Amicon Centrifugal Filter Units. The protein solution was equilibrated in the anaerobic chamber on a Thermomixer at 4° C. overnight. […]

[4] = Initial production rate determination under single turnover conditions; conditions: single turnover condition
Protocol: To determine the initial rates of 1-alkene production under the single turnover conditions, the O2-saturated buffer solution (50 mM MES, pH 6.2, 100 mM NaCl) was mixed with an equal volume of an O2-free solution containing 50 mM MES buffer (pH 6.2), 100 mM NaCl, 200 μM (NH4)2Fe(SO4)2, 0.2-20 μM PFL_4321, and various concentrations of substrate (2-300 μM), so that the final mixture contained 50 mM MES buffer (pH 6.2), 100 mM NaCl, 0.1-10 μM PFL_4321, 100 μM (NH4)2Fe(SO4)2, and various concentrations of substrate (1-150 μM). The reactions were carried out in sealed GC vials and quenched by injecting 1 M NaOH at 2, 4, 6, 8, 10, 20, 30, 40, 50, 60 seconds. The productions of 1-alkenes were analyzed by SPME-GCMS analysis.

B1: PFL_4321: protein of 261 amino acids from Pseudomonas fluorescens Pf-5; non-heme iron (II)-dependent enzyme converting medium-chain fatty acids into terminal olefins (protein, listed as Pseudomonas fluorescens)
chain: MIDTFSRTGPLMEAASYPAWTQQLIQDCSESKRRVVEHELYQRMRDNKLSAKVMRQYLIGGWPVVEQFALYMAQNLTKTRFARHPGEDMARRWLMRNIRVELNHADYWVHWSRAHGVTLEDLQAQQVPPELHALSHWCWHTSSADSLIVAIAATNYAIEGATGEWSALVCSNGIYAAAFPEEDRKRAMKWLKMHAQYDDAHPWEALEIIVTLAGLNPTKALQAELRQAICKSYDYMYLFLERCMQQEKTAVTRERLALAEG
[1]; EDTA omitted, desalted
  1-undecene production by recycled enzyme: failed to catalyze the reaction
[1]; listed as apo-PFL_4321
  1-undecene produced (activity) compared with the original PFL_4321: over 80%
[1]; listed as recycled PFL_4321
  1-undecene produced (activity) compared with the original PFL_4321: 80%
[2]; substrate C8:0
  In vitro activity toward C8:0: x
[2]; substrate C10:0
  In vitro activity toward C10:0: ✓
[2]; substrate C12:0
  In vitro activity toward C12:0: ✓
[2]; substrate C14:0
  In vitro activity toward C14:0: ✓
[2]; substrate C16:0
  In vitro activity toward C16:0: x
[3]; anaerobic
  1-undecene production in anaerobic enzymatic assays: nearly abolished
[3]; anaerobic versus aerobic
  decrease of 1-undecene production in anaerobic enzymatic assays: more than 150 fold
[4]
  initial rate of 1-undecene production: 0.06±0.002 mol 1-undecene/(mol PFL_4321-Fe(II) second)
